From patent US20260242478A1 (published 2026)

Assays:
[1] = molecular target: T1, Anti-CD28 Fab (SEQ ID NOs: 696, 697); experiment: phage ELISA; clonal phage on plate-captured biotinylated anti-CD28 Fab, anti-M13 HRP detection
T1 construct: Biotinylated and captured on neutravidin coated plates in the phage ELISA
T1 sequence (VH, as listed by the source, chain 1 of 2): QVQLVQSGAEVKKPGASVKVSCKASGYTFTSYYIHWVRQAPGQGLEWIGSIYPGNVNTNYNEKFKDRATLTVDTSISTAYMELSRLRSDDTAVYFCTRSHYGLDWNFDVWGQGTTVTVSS
T1 sequence (VL, as listed by the source, chain 2 of 2): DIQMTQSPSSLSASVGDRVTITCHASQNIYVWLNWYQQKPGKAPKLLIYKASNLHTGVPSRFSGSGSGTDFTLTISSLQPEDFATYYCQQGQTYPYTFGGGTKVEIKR
Protocol: (§1) After panning, phage infected bacteria were plated out and colonies picked into 96 well blocks. Clonal phage was then amplified and separated from bacterial cells via centrifugation.
(§2) Clonal phage were harvested as crude supematants and screened via standard ELISAs. […] Prior to the addition of clonal phage, wells were incubated with blocking buffer and CD28 antigen or blocking buffer alone. Without washing or aspirating, clonal phage supematants were then added to the wells and incubated for a short time. Wells were then washed followed by detection of bound phage using a horse radish conjugated anti-M13 antibody. Clonal phage of interest were then sent for sequence analysis.

[2] = molecular target: T1, Anti-CD28 Fab (SEQ ID NOs: 696, 697); experiment: phage ELISA; clonal phage on plate-captured anti-CD28 Fab pre-incubated with CD28 antigen as competitor
Protocol: as §1, §2

[3] = molecular target: T2, Anti-CD28 Fab (SEQ ID NOs: 696, 697); experiment: phage binding ELISA, clonal phage on biotinylated anti-CD28 Fab captured on neutravidin plates;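 also: crude clonal phage supernatants added to wells pretreated with CD28 antigen or blocking buffer only, bound phage detected by HRP-linked anti-M13 antibody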
T2 construct: In the phage ELISA the Fab was biotinylated and captured on neutravidin coated plates
T2 sequence (VH, as listed by the source, chain 1 of 2): as the sequence (VH, as listed by the source, chain 1 of 2) above
T2 sequence (VL, as listed by the source, chain 2 of 2): as the sequence (VL, as listed by the source, chain 2 of 2) above
Protocol: as §1, §2

[4] = molecular target: T2, Anti-CD28 Fab (SEQ ID NOs: 696, 697); experiment: phage binding ELISA on captured anti-CD28 Fab, wells pre-incubated with CD28 antigen as competitor;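 also: crude clonal phage supernatants added to wells preloaded with CD28 antigen, bound phage read by HRP-conjugated anti-M13 antibody, control wells got blocking buffer alone without CD28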
Protocol: as §1, §2

[5] = molecular target: T3, Anti-CD28 Fab (SEQ ID NOs: 696, 697); experiment: phage ELISA, clonal phage on plate-captured biotinylated anti-CD28 Fab, anti-M13 HRP detection
T3 construct: Biotinylated and captured on neutravidin coated plates in the phage ELISA
T3 sequence (VH, as listed by the source, chain 1 of 2): as the sequence (VH, as listed by the source, chain 1 of 2) above
T3 sequence (VL, as listed by the source, chain 2 of 2): as the sequence (VL, as listed by the source, chain 2 of 2) above
Protocol: as §1, §2

[6] = molecular target: T3, Anti-CD28 Fab (SEQ ID NOs: 696, 697); experiment: phage ELISA on plate-captured anti-CD28 Fab pre-incubated with CD28 antigen (competitor: CD28)
Protocol: as §1, §2

B1: Phage-1001 (peptide)
peptide: YCEGHSIQYMTKCL
notes: tested as crude clonal phage supernatant
Phage binding ELISA, Anti-CD28 Fab signal [1]: 1.53 | Phage binding ELISA, Anti-CD28 Fab signal in the presence of CD28 [2]: 0.13

B2: Phage-1007 (peptide)
peptide: YCAGHLPVYMDKCL
notes: as for B1
Phage binding ELISA, Anti-CD28 Fab signal [1]: 1.52 | Phage binding ELISA, Anti-CD28 Fab signal in the presence of CD28 [2]: 0.08

B3: Phage-969 (peptide)
peptide: YCDGHSEAYMWKCL
notes: as for B1
Anti-CD28 Fab (SEQ ID NOs: 696, 697) signal [3]: 1.59 | Anti-CD28 Fab signal in the presence of CD28 [4]: 0.07

B4: Phage-1005 (peptide)
peptide: YCDGHLPEYLAKCL
notes: as for B1
Phage binding ELISA, Anti-CD28 Fab signal [1]: 1.52 | Phage binding ELISA, Anti-CD28 Fab signal in the presence of CD28 [2]: 0.06

B5: Phage-959 (peptide)
peptide: YCDGHSVEYKLKCM
notes: as for B1
Anti-CD28 Fab (SEQ ID NOs: 696, 697) signal [3]: 1.61 | Anti-CD28 Fab signal in the presence of CD28 [4]: 0.06

YCAGHSSEYIPKCL [Phage-974]
Anti-CD28 Fab signal (phage binding ELISA) [5]: 1.58 | Anti-CD28 Fab signal in the presence of CD28 (phage binding ELISA) [6]: 0.09

B6: Phage-958 (peptide)
peptide: YCSGHLPEYMWKCL
notes: as for B1
Anti-CD28 Fab (SEQ ID NOs: 696, 697) signal [3]: 1.61 | Anti-CD28 Fab signal in the presence of CD28 [4]: 0.1

YCEGHLPQYMVKCL [Phage-977]
Anti-CD28 Fab signal (phage binding ELISA) [5]: 1.58 | Anti-CD28 Fab signal in the presence of CD28 (phage binding ELISA) [6]: 0.07

B7: Phage-964 (peptide)
peptide: YCEGHMPEYLQKCL
notes: as for B1
Anti-CD28 Fab (SEQ ID NOs: 696, 697) signal [3]: 1.6 | Anti-CD28 Fab signal in the presence of CD28 [4]: 0.1

YCDGHSWQYMWKCI [Phage-981]
Anti-CD28 Fab signal (phage binding ELISA) [5]: 1.57 | Anti-CD28 Fab signal in the presence of CD28 (phage binding ELISA) [6]: 0.09

B8: Phage-957 (peptide)
peptide: YCDGHSVKYMAKCL
notes: as for B1
Anti-CD28 Fab (SEQ ID NOs: 696, 697) signal [3]: 1.61 | Anti-CD28 Fab signal in the presence of CD28 [4]: 0.06

YCEGHLGIYMTKCL [Phage-980]
Anti-CD28 Fab signal (phage binding ELISA) [5]: 1.57 | Anti-CD28 Fab signal in the presence of CD28 (phage binding ELISA) [6]: 0.08

B9: Phage-967 (peptide)
peptide: YCAGHLDQYIEKCL
notes: as for B1
Anti-CD28 Fab (SEQ ID NOs: 696, 697) signal [3]: 1.6 | Anti-CD28 Fab signal in the presence of CD28 [4]: 0.1

B10: Phage-1000 (peptide)
peptide: YCDGHAPEYLTKCL
notes: as for B1
Phage binding ELISA, Anti-CD28 Fab signal [1]: 1.53 | Phage binding ELISA, Anti-CD28 Fab signal in the presence of CD28 [2]: 0.06

B11: Phage-1006 (peptide)
peptide: YCDGHLAVYMAKCL
notes: as for B1
Phage binding ELISA, Anti-CD28 Fab signal [1]: 1.52 | Phage binding ELISA, Anti-CD28 Fab signal in the presence of CD28 [2]: 0.08

B12: Phage-998 (peptide)
peptide: YCEGHLGQYMEKCL
notes: as for B1
Phage binding ELISA, Anti-CD28 Fab signal [1]: 1.54 | Phage binding ELISA, Anti-CD28 Fab signal in the presence of CD28 [2]: 0.08

B13: Phage-1003 (peptide)
peptide: YCDGHSVEYLDKCL
notes: as for B1
Phage binding ELISA, Anti-CD28 Fab signal [1]: 1.53 | Phage binding ELISA, Anti-CD28 Fab signal in the presence of CD28 [2]: 0.08

B14: Phage-968 (peptide)
peptide: YCDGHAQEFIWKCL
notes: as for B1
Anti-CD28 Fab (SEQ ID NOs: 696, 697) signal [3]: 1.6 | Anti-CD28 Fab signal in the presence of CD28 [4]: 0.1

B15: Phage-960 (peptide)
peptide: YCDGHAQEYMVKCL
notes: as for B1
Anti-CD28 Fab (SEQ ID NOs: 696, 697) signal [3]: 1.61 | Anti-CD28 Fab signal in the presence of CD28 [4]: 0.06

B16: Phage-966 (peptide)
peptide: YCDGHRLEYLEKCL
notes: as for B1
Anti-CD28 Fab (SEQ ID NOs: 696, 697) signal [3]: 1.6 | Anti-CD28 Fab signal in the presence of CD28 [4]: 0.06

YCEGHSEEFMSKCL [Phage-982]
Anti-CD28 Fab signal (phage binding ELISA) [5]: 1.57 | Anti-CD28 Fab signal in the presence of CD28 (phage binding ELISA) [6]: 0.08

B17: Phage-965 (peptide)
peptide: YCDGHELQYMAKCL
notes: as for B1
Anti-CD28 Fab (SEQ ID NOs: 696, 697) signal [3]: 1.6 | Anti-CD28 Fab signal in the presence of CD28 [4]: 0.08

YCQGHADEYMAKCL [Phage-978]
Anti-CD28 Fab signal (phage binding ELISA) [5]: 1.58 | Anti-CD28 Fab signal in the presence of CD28 (phage binding ELISA) [6]: 0.08

B18: Phage-1004 (peptide)
peptide: YCDGHAWQYMWKCL
notes: as for B1
Phage binding ELISA, Anti-CD28 Fab signal [1]: 1.53 | Phage binding ELISA, Anti-CD28 Fab signal in the presence of CD28 [2]: 0.07

YCDGHLPQYLQKCT [Phage-975]
Anti-CD28 Fab signal (phage binding ELISA) [5]: 1.58 | Anti-CD28 Fab signal in the presence of CD28 (phage binding ELISA) [6]: 0.07

B19: Phage-1002 (peptide)
peptide: YCDGHLQIYMGKCL
notes: as for B1
Phage binding ELISA, Anti-CD28 Fab signal [1]: 1.53 | Phage binding ELISA, Anti-CD28 Fab signal in the presence of CD28 [2]: 0.06

YCDGHAEEYLLKCL [Phage-979]
Anti-CD28 Fab signal (phage binding ELISA) [5]: 1.57 | Anti-CD28 Fab signal in the presence of CD28 (phage binding ELISA) [6]: 0.05

B20: Phage-999 (peptide)
peptide: YCDGHNGVYWWKCI
notes: as for B1
Phage binding ELISA, Anti-CD28 Fab signal [1]: 1.53 | Phage binding ELISA, Anti-CD28 Fab signal in the presence of CD28 [2]: 0.07

YCEGHSWEHMEKCL [Phage-973]
Anti-CD28 Fab signal (phage binding ELISA) [5]: 1.58 | Anti-CD28 Fab signal in the presence of CD28 (phage binding ELISA) [6]: 0.06

B21: Phage-963 (peptide)
peptide: YCEGHSAAYMQKCL
notes: as for B1
Anti-CD28 Fab (SEQ ID NOs: 696, 697) signal [3]: 1.6 | Anti-CD28 Fab signal in the presence of CD28 [4]: 0.09

B22: Phage-961 (peptide)
peptide: YCAGHSPEYMQKCL
notes: as for B1
Anti-CD28 Fab (SEQ ID NOs: 696, 697) signal [3]: 1.6 | Anti-CD28 Fab signal in the presence of CD28 [4]: 0.08

YCDGHRVEYMAKCL [Phage-972]
Anti-CD28 Fab signal (phage binding ELISA) [5]: 1.58 | Anti-CD28 Fab signal in the presence of CD28 (phage binding ELISA) [6]: 0.09

B23: Phage-962 (peptide)
peptide: YCEGHLPLYMDKCL
notes: as for B1
Anti-CD28 Fab (SEQ ID NOs: 696, 697) signal [3]: 1.6 | Anti-CD28 Fab signal in the presence of CD28 [4]: 0.08

YCEGHSVEYIGKCL [Phage-971]
Anti-CD28 Fab signal (phage binding ELISA) [5]: 1.59 | Anti-CD28 Fab signal in the presence of CD28 (phage binding ELISA) [6]: 0.07

YCDGHAKEYIQKCL [Phage-976]
Anti-CD28 Fab signal (phage binding ELISA) [5]: 1.58 | Anti-CD28 Fab signal in the presence of CD28 (phage binding ELISA) [6]: 0.06

B24: Phage-997 (peptide)
peptide: YCEGHAPVYMFKCL
notes: as for B1
Phage binding ELISA, Anti-CD28 Fab signal [1]: 1.54 | Phage binding ELISA, Anti-CD28 Fab signal in the presence of CD28 [2]: 0.08

YCEGHADEYMWKCL [Phage-970]
Anti-CD28 Fab signal (phage binding ELISA) [5]: 1.59 | Anti-CD28 Fab signal in the presence of CD28 (phage binding ELISA) [6]: 0.06
